Results taken from paper PMC7367873, “Dissecting the sequence determinants for dephosphorylation by the catalytic subunits of phosphatases PP1 and PP2A” (Nature Communications, 2020).

Key:
[1] = system: GFP-14-3-3β and its binding proteins; experiment: GFP-14-3-3β co-IP with LC-MS/MS label-free quantification, untreated versus PP1c-treated; parameters: species or system human; settings: pairwise comparison PP1 vs untreated, 3 replicates each
GFP-14-3-3β = GFP-14-3-3β co-IP with LC-MS/MS, untreated GFP-14-3-3β versus GFP control (14-3-3 interactome); type: binding, human; settings: 3 replicates each
[2] = student's t-test, LC-MS/MS label-free quantification
[3] = pairwise comparison untreated GFP-14-3-3β vs GFP, student's t-test, LC-MS/MS label-free quantification

Molecule | Difference (log2), PP1 vs untreated [1, 2] [log2] | Difference (log2), PP1 vs untreated ([1]; log2 difference, label-free quantification) | Difference (log2), untreated vs GFP (GFP-14-3-3β; [3]) [log2] | Difference (log2), untreated vs GFP (GFP-14-3-3β; log2 difference, pairwise comparison untreated vs GFP, label-free quantification)
MTMR3 (protein, UniProt Q13615 1-1198, looked up) Phosphatidylinositol-3,5-bisph …: MDEETRHSLECIQANQIFPRKQLIREDENLQVPFLELHGESTEFVGRAEDAIIALSNYRLHIKFKESLVNVPLQLIESVECRDIFQLHLTCKDCKVIRCQFSTFEQCQEWLKRLNNAIRPPAKIEDLFSFAYHAWCMEVYASEKEQHGDLCRPGEHVTSRFKNEVERMGFDMNNAWRISNINEKYKLCGSYPQELIVPAWITDKELESVSSFRSWKRIPAVIYRHQSNGAVIARCGQPEVSWWGWRNADDEHLVQSVAKACASDSRSSGSKLSTRNTSRDFPNGGDLSDVEFDSSLSNASGAESLAIQPQKLLILDARSYAAAVANRAKGGGCECPEYYPNCEVVFMGMANIHSIRRSFQSLRLLCTQMPDPGNWLSALESTKWLHHLSVLLKSALLVVHAVDQDQRPVLVHCSDGWDRTPQIVALAKLLLDPYYRTIEGFQVLVEMEWLDFGHKFADRCGHGENSDDLNERCPVFLQWLDCVHQLQRQFPCSFEFNEAFLVKLVQHTYSCLFGTFLCNNAKERGEKHTQERTCSVWSLLRAGNKAFKNLLYSSQSEAVLYPVCHVRNLMLWSAVYLPCPSPTTPVDDSCAPYPAPGTSPDDPPLSRLPKTRSYDNLTTACDNTVPLASRRCSDPSLNEKWQEHRRSLELSSLAGPGEDPLSADSLGKPTRVPGGAELSVAAGVAEGQMENILQEATKEESGVEEPAHRAGIEIQEGKEDPLLEKESRRKTPEASAIGLHQDPELGDAALRSHLDMSWPLFSQGISEQQSGLSVLLSSLQVPPRGEDSLEVPVEQFRIEEIAEGREEAVLPIPVDAKVGYGTSQSCSLLPSQVPFETRGPNVDSSTDMLVEDKVKSVSGPQGHHRSCLVNSGKDRLPQTMEPSPSETSLVERPQVGSVVHRTSLGSTLSLTRSPCALPLAECKEGLVCNGAPETENRASEQPPGLSTLQMYPTPNGHCANGEAGRSKDSLSRQLSAMSCSSAHLHSRNLHHKWLHSHSGRPSATSSPDQPSRSHLDDDGMSVYTDTIQQRLRQIESGHQQEVETLKKQVQELKSRLESQYLTSSLHFNGDFGDEVTSIPDSESNLDQNCLSRCSTEIFSEASWEQVDKQDTEMTRWLPDHLAAHCYACDSAFWLASRKHHCRNCGNVFCSSCCNQKVPVPSQQLFEPSRVCKSCYSSLHPTSSSIDLELDKPIAATSN | -4.593 |  | 4.385 | 
KIF23 (protein, UniProt Q02241 1-960, looked up) Kinesin-like protein KIF23: MKSARAKTPRKPTVKKGSQTNLKDPVGVYCRVRPLGFPDQECCIEVINNTTVQLHTPEGYRLNRNGDYKETQYSFKQVFGTHTTQKELFDVVANPLVNDLIHGKNGLLFTYGVTGSGKTHTMTGSPGEGGLLPRCLDMIFNSIGSFQAKRYVFKSNDRNSMDIQCEVDALLERQKREAMPNPKTSSSKRQVDPEFADMITVQEFCKAEEVDEDSVYGVFVSYIEIYNNYIYDLLEEVPFDPIKPKPPQSKLLREDKNHNMYVAGCTEVEVKSTEEAFEVFWRGQKKRRIANTHLNRESSRSHSVFNIKLVQAPLDADGDNVLQEKEQITISQLSLVDLAGSERTNRTRAEGNRLREAGNINQSLMTLRTCMDVLRENQMYGTNKMVPYRDSKLTHLFKNYFDGEGKVRMIVCVNPKAEDYEENLQVMRFAEVTQEVEVARPVDKAICGLTPGRRYRNQPRGPVGNEPLVTDVVLQSFPPLPSCEILDINDEQTLPRLIEALEKRHNLRQMMIDEFNKQSNAFKALLQEFDNAVLSKENHMQGKLNEKEKMISGQKLEIERLEKKNKTLEYKIEILEKTTTIYEEDKRNLQQELETQNQKLQRQFSDKRRLEARLQGMVTETTMKWEKECERRVAAKQLEMQNKLWVKDEKLKQLKAIVTEPKTEKPERPSRERDREKVTQRSVSPSPVPLSSNYIAQISNGQQLMSQPQLHRRSNSCSSISVASCISEWEQKIPTYNTPLKVTSIARRRQQEPGQSKTCIVSDRRRGMYWTEGREVVPTFRNEIEIEEDHCGRLLFQPDQNAPPIRLRHRRSRSAGDRWVDHKPASNMQTETVMQPHVPHAITVSVANEKALAKCEKYMLTHQELASDGEIETKLIKGDIYKTRGGGQSVQFTDIETLKQESPNGSRKRRSSTVAPAQPDGAESEWTDVETRCSVAVEMRAGSQLGPGYQHHAQPKRKKP | -4.537 |  | 6.386 | 
PA2G4 (protein, UniProt Q9UQ80 2-394, looked up) Proliferation-associated …: SGEDEQQEQTIAEDLVVTKYKMGGDIANRVLRSLVEASSSGVSVLSLCEKGDAMIMEETGKIFKKEKEMKKGIAFPTSISVNNCVCHFSPLKSDQDYILKEGDLVKIDLGVHVDGFIANVAHTFVVDVAQGTQVTGRKADVIKAAHLCAEAALRLVKPGNQNTQVTEAWNKVAHSFNCTPIEGMLSHQLKQHVIDGEKTIIQNPTDQQKKDHEKAEFEVHEVYAVDVLVSSGEGKAKDAGQRTTIYKRDPSKQYGLKMKTSRAFFSEVERRFDAMPFTLRAFEDEKKARMGVVECAKHELLQPFNVLYEKEGEFVAQFKFTVLLMPNGPMRITSGPFEPDLYKSEMEVQDAELKALLQSSASRKTQKKKKKKASKTAENATSGETLEENEAGD |  | 1.519 |  | 0.3875

The next lines start with results.

Difference (log2), PP1 vs untreated [1, 2] [log2] | Difference (log2), PP1 vs untreated ([1]; log2 difference, label-free quantification) | Molecule | Difference (log2), untreated vs GFP (GFP-14-3-3β; [3]) [log2] | Difference (log2), untreated vs GFP (GFP-14-3-3β; log2 difference, pairwise comparison untreated vs GFP, label-free quantification)
-4.512 |  | HOMER3 (protein, UniProt Q9NSC5 1-361, looked up) Homer protein homolog 3: MSTAREQPIFSTRAHVFQIDPATKRNWIPAGKHALTVSYFYDATRNVYRIISIGGAKAIINSTVTPNMTFTKTSQKFGQWADSRANTVYGLGFASEQHLTQFAEKFQEVKEAARLAREKSQDGGELTSPALGLASHQVPPSPLVSANGPGEEKLFRSQSADAPGPTERERLKKMLSEGSVGEVQWEAEFFALQDSNNKLAGALREANAAAAQWRQQLEAQRAEAERLRQRVAELEAQAASEVTPTGEKEGLGQGQSLEQLEALVQTKDQEIQTLKSQTGGPREALEAAEREETQQKVQDLETRNAELEHQLRAMERSLEEARAERERARAEVGRAAQLLDVSLFELSELREGLARLAEAAP | 5.445 | 
-4.417 |  | GIT1 (protein, UniProt Q9Y2X7 1-761, looked up) ARF GTPase-activating protein …: MSRKGPRAEVCADCSAPDPGWASISRGVLVCDECCSVHRSLGRHISIVKHLRHSAWPPTLLQMVHTLASNGANSIWEHSLLDPAQVQSGRRKANPQDKVHPIKSEFIRAKYQMLAFVHKLPCRDDDGVTAKDLSKQLHSSVRTGNLETCLRLLSLGAQANFFHPEKGTTPLHVAAKAGQTLQAELLVVYGADPGSPDVNGRTPIDYARQAGHHELAERLVECQYELTDRLAFYLCGRKPDHKNGHYIIPQMADSLDLSELAKAAKKKLQALSNRLFEELAMDVYDEVDRRENDAVWLATQNHSTLVTERSAVPFLPVNPEYSATRNQGRQKLARFNAREFATLIIDILSEAKRRQQGKSLSSPTDNLELSLRSQSDLDDQHDYDSVASDEDTDQEPLRSTGATRSNRARSMDSSDLSDGAVTLQEYLELKKALATSEAKVQQLMKVNSSLSDELRRLQREIHKLQAENLQLRQPPGPVPTPPLPSERAEHTPMAPGGSTHRRDRQAFSMYEPGSALKPFGGPPGDELTTRLQPFHSTELEDDAIYSVHVPAGLYRIRKGVSASAVPFTPSSPLLSCSQEGSRHTSKLSRHGSGADSDYENTQSGDPLLGLEGKRFLELGKEEDFHPELESLDGDLDPGLPSTEDVILKTEQVTKNIQELLRAAQEFKHDSFVPCSEKIHLAVTEMASLFPKRPALEPVRSSLRLLNASAYRLQSECRKTVPPEPGAPVDFQLLTQQVIQCAYDIAKAAKQLVTITTREKKQ | 5.06 | 
